# Molecular target: wt1_human WT1 (UniProt P19544)
# Sequence (P19544 whole entry): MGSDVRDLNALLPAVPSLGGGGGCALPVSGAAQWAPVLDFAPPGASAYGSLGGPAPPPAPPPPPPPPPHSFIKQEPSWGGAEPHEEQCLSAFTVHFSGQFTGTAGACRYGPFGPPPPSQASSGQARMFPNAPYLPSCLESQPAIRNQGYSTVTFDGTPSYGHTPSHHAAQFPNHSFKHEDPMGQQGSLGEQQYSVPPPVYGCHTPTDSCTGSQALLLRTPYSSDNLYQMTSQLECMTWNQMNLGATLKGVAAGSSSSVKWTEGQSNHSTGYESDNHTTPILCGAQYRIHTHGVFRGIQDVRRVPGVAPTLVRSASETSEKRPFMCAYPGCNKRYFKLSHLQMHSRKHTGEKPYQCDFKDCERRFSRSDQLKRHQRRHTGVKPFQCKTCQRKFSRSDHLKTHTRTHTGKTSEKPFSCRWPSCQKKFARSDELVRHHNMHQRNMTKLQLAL
row,effect of a mutation on the interaction,Substance
1,disrupting interaction strength,"Methylcytosine dioxygenase TET2 (Homo sapiens), Q6N021 P1617H"
2,disrupting interaction strength,"Methylcytosine dioxygenase TET2 (Homo sapiens), Q6N021 A1505T"
3,disrupting interaction strength,"Methylcytosine dioxygenase TET2 (Homo sapiens), Q6N021 G1861R"
4,disrupting interaction strength,"Methylcytosine dioxygenase TET2 (Homo sapiens), Q6N021 G1256D"
5,disrupting interaction strength,"Methylcytosine dioxygenase TET2 (Homo sapiens), Q6N021 D1242V"

# The remaining lines, values behind:
row,Substance,effect of a mutation on the interaction
1,"Methylcytosine dioxygenase TET2 (Homo sapiens), Q6N021 T1884A",disrupting interaction strength
2,"Methylcytosine dioxygenase TET2 (Homo sapiens), Q6N021 R1302G",disrupting interaction strength
3,"Methylcytosine dioxygenase TET2 (Homo sapiens), Q6N021 F1368L",decreasing interaction strength
4,"Methylcytosine dioxygenase TET2 (Homo sapiens), Q6N021 D1314G",with no effect
5,"Methylcytosine dioxygenase TET2 (Homo sapiens), Q6N021 L1340R",decreasing interaction strength
